The array DNA melting data of Ke et al.

Assay: melting temperature; melt of duplexes
Conditions: sodium 0.0675 M; strand 1 µM

First: CGACGTGCTCCATGTGCTG+CAGCACATGTCGCACGTCG ((((((((..(((((((((+)))))))))..))))))))
Second: CGACGTGCGTCATGTGCTG+CAGCACATTTTGCACGTCG ((((((((...((((((((+))))))))...))))))))
The Tm of the first is higher: 52.1 °C for the first, 48.4 °C for the second.

First: CGACGTGCAATATGTGCTG+CAGCACATCGTGCACGTCG (((((((((..((((((((+))))))))..)))))))))
Second: CGACGTGCTAAATGTGCTG+CAGCACATGGAGCACGTCG (((((((((..((((((((+))))))))..)))))))))
The Tm of the first is lower: 45.9 °C for the first, 54.5 °C for the second.

First: CGACGTGCACTATGTGCTG+CAGCACATCCTGCACGTCG (((((((((..((((((((+))))))))..)))))))))
Second: CGACGTGCAGAATGTGCTG+CAGCACATGGCGCACGTCG ((((((((...((((((((+))))))))...))))))))
The Tm of the first is lower: 44.9 °C for the first, 55.9 °C for the second.

First: CGACGTGCGGGATGTGCTG+CAGCACATCAAGCACGTCG ((((((((..(((((((((+)))))))))..))))))))
Second: CGACGTGCGGTATGTGCTG+CAGCACATGAAGCACGTCG ((((((((...((((((((+))))))))...))))))))
The Tm of the first is higher: 57.6 °C for the first, 55.3 °C for the second.

Going from “CGACGTGCATCATGTGCTG+CAGCACATTCTGCACGTCG (((((((((..((((((((+))))))))..)))))))))” to “CGACGTGCGGGATGTGCTG+CAGCACATACTGCACGTCG ((((((((.(.((((((((+)))))))).).))))))))”, the Tm rises from 50.5 °C to 56.9 °C.

Compared with “CGACGTGCAGTATGTGCTG+CAGCACATTGGGCACGTCG ((((((((...((((((((+))))))))...))))))))”, “CGACGTGCGAGATGTGCTG+CAGCACATTGTGCACGTCG ((((((((...((((((((+))))))))...))))))))” is higher in Tm: 48.8 °C for the first, 49.7 °C for the second.

Going from “CGACGTGCCCCATGTGCTG+CAGCACATAGAGCACGTCG ((((((((.(.((((((((+)))))))).).))))))))” to “CGACGTGCAAGATGTGCTG+CAGCACATAGTGCACGTCG (((((((((..((((((((+))))))))..)))))))))”, the Tm falls from 48.7 °C to 48.6 °C.

Compared with “CGACGTGCCTCATGTGCTG+CAGCACATCGAGCACGTCG ((((((((...((((((((+))))))))...))))))))”, “CGACGTGCCAGATGTGCTG+CAGCACATTTCGCACGTCG ((((((((.(.((((((((+)))))))).).))))))))” is lower in Tm: 50 °C for the first, 49.6 °C for the second.

Going from “CGACGTGCTTTATGTGCTG+CAGCACATGCCGCACGTCG ((((((((...((((((((+))))))))...))))))))” to “CGACGTGCGTTATGTGCTG+CAGCACATCGCGCACGTCG (((((((((..((((((((+))))))))..)))))))))”, the Tm rises from 46.7 °C to 54.6 °C.

First: CGACGTGCGGCATGTGCTG+CAGCACATACTGCACGTCG ((((((((.(.((((((((+)))))))).).))))))))
Second: CGACGTGCCACATGTGCTG+CAGCACATTTTGCACGTCG ((((((((.(.((((((((+)))))))).).))))))))
The Tm of the first is higher: 54.2 °C for the first, 48 °C for the second.

Going from “CGACGTGCCCCATGTGCTG+CAGCACATATCGCACGTCG ((((((((...((((((((+))))))))...))))))))” to “CGACGTGCGTGATGTGCTG+CAGCACATATAGCACGTCG ((((((((...((((((((+))))))))...))))))))”, the Tm rises from 45.5 °C to 52.5 °C.

First: CGACGTGCTTTATGTGCTG+CAGCACATACCGCACGTCG ((((((((..(((((((((+)))))))))..))))))))
Second: CGACGTGCAAGATGTGCTG+CAGCACATGTGGCACGTCG ((((((((.(.((((((((+)))))))).).))))))))
The Tm of the first is lower: 48.3 °C for the first, 52.8 °C for the second.

First: CGACGTGCTCTATGTGCTG+CAGCACATTGTGCACGTCG ((((((((.(.((((((((+)))))))).).))))))))
Second: CGACGTGCATTATGTGCTG+CAGCACATGTGGCACGTCG ((((((((...((((((((+))))))))...))))))))
The Tm of the first is lower: 48.3 °C for the first, 49.2 °C for the second.

Compared with “CGACGTGCCTGATGTGCTG+CAGCACATAACGCACGTCG ((((((((.(.((((((((+)))))))).).))))))))”, “CGACGTGCGGCATGTGCTG+CAGCACATCTGGCACGTCG ((((((((...((((((((+))))))))...))))))))” is higher in Tm: 48.8 °C for the first, 51.1 °C for the second.

Compared with “CGACGTGCTCGATGTGCTG+CAGCACATTCAGCACGTCG (((((((((..((((((((+))))))))..)))))))))”, “CGACGTGCTATATGTGCTG+CAGCACATTATGCACGTCG ((((((((...((((((((+))))))))...))))))))” is lower in Tm: 51.9 °C for the first, 51.6 °C for the second.

Going from “CGACGTGCCATATGTGCTG+CAGCACATGTTGCACGTCG ((((((((.(.((((((((+)))))))).).))))))))” to “CGACGTGCATCATGTGCTG+CAGCACATCTGGCACGTCG ((((((((...((((((((+))))))))...))))))))”, the Tm falls from 50.8 °C to 47.5 °C.

Compared with “CGACGTGCAGCATGTGCTG+CAGCACATGTTGCACGTCG (((((((((.(((((((((+))))))))).)))))))))”, “CGACGTGCTGAATGTGCTG+CAGCACATGCGGCACGTCG ((((((((.(.((((((((+)))))))).).))))))))” is lower in Tm: 58.7 °C for the first, 55.3 °C for the second.

Going from “CGACGTGCATCATGTGCTG+CAGCACATTGCGCACGTCG ((((((((...((((((((+))))))))...))))))))” to “CGACGTGCCCAATGTGCTG+CAGCACATTTAGCACGTCG ((((((((..(((((((((+)))))))))..))))))))”, the Tm rises from 46.9 °C to 50.4 °C.

Compared with “CGACGTGCATAATGTGCTG+CAGCACATGCGGCACGTCG ((((((((...((((((((+))))))))...))))))))”, “CGACGTGCACCATGTGCTG+CAGCACATTTAGCACGTCG ((((((((...((((((((+))))))))...))))))))” is lower in Tm: 48.7 °C for the first, 42.2 °C for the second.

Going from “CGACGTGCAGTATGTGCTG+CAGCACATGCCGCACGTCG ((((((((.(.((((((((+)))))))).).))))))))” to “CGACGTGCCTGATGTGCTG+CAGCACATCATGCACGTCG ((((((((.((((((((((+)))))))))).))))))))”, the Tm rises from 52.8 °C to 56.9 °C.

Compared with “CGACGTGCGCTATGTGCTG+CAGCACATGAAGCACGTCG ((((((((...((((((((+))))))))...))))))))”, “CGACGTGCAACATGTGCTG+CAGCACATTGGGCACGTCG ((((((((...((((((((+))))))))...))))))))” is lower in Tm: 53.9 °C for the first, 50.1 °C for the second.

Compared with “CGACGTGCTGCATGTGCTG+CAGCACATTTAGCACGTCG (((((((((..((((((((+))))))))..)))))))))”, “CGACGTGCTGAATGTGCTG+CAGCACATGGTGCACGTCG ((((((((...((((((((+))))))))...))))))))” is lower in Tm: 51 °C for the first, 50.9 °C for the second.

Going from “CGACGTGCGCCATGTGCTG+CAGCACATGTGGCACGTCG ((((((((..(((((((((+)))))))))..))))))))” to “CGACGTGCGCGATGTGCTG+CAGCACATGGGGCACGTCG ((((((((.(.((((((((+)))))))).).))))))))”, the Tm rises from 54.1 °C to 55.6 °C.

Going from “CGACGTGCACTATGTGCTG+CAGCACATACGGCACGTCG ((((((((..(((((((((+)))))))))..))))))))” to “CGACGTGCCTCATGTGCTG+CAGCACATCAGGCACGTCG ((((((((((.((((((((+)))))))).))))))))))”, the Tm rises from 46 °C to 55 °C.

Going from “CGACGTGCTTAATGTGCTG+CAGCACATACGGCACGTCG ((((((((...((((((((+))))))))...))))))))” to “CGACGTGCACGATGTGCTG+CAGCACATCGGGCACGTCG ((((((((.((((((((((+)))))))))).))))))))”, the Tm rises from 48.3 °C to 63.8 °C.

First: CGACGTGCTCAATGTGCTG+CAGCACATCACGCACGTCG ((((((((...((((((((+))))))))...))))))))
Second: CGACGTGCCCAATGTGCTG+CAGCACATATCGCACGTCG ((((((((...((((((((+))))))))...))))))))
The Tm of the first is higher: 48.1 °C for the first, 47.1 °C for the second.

Compared with “CGACGTGCCCTATGTGCTG+CAGCACATGCCGCACGTCG ((((((((...((((((((+))))))))...))))))))”, “CGACGTGCTAAATGTGCTG+CAGCACATCCAGCACGTCG (((((((((..((((((((+))))))))..)))))))))” is higher in Tm: 47.7 °C for the first, 50.8 °C for the second.

First: CGACGTGCGTCATGTGCTG+CAGCACATGCCGCACGTCG (((((((((.(((((((((+))))))))).)))))))))
Second: CGACGTGCTCGATGTGCTG+CAGCACATGATGCACGTCG ((((((((...((((((((+))))))))...))))))))
The Tm of the first is higher: 59.9 °C for the first, 51.9 °C for the second.

Compared with “CGACGTGCCTTATGTGCTG+CAGCACATTGGGCACGTCG (((((((((..((((((((+))))))))..)))))))))”, “CGACGTGCGTAATGTGCTG+CAGCACATTCTGCACGTCG ((((((((..(((((((((+)))))))))..))))))))” is lower in Tm: 55 °C for the first, 53.4 °C for the second.

Compared with “CGACGTGCAGCATGTGCTG+CAGCACATTCAGCACGTCG ((((((((.(.((((((((+)))))))).).))))))))”, “CGACGTGCCTTATGTGCTG+CAGCACATTTCGCACGTCG ((((((((...((((((((+))))))))...))))))))” is lower in Tm: 47.8 °C for the first, 47.1 °C for the second.

Going from “CGACGTGCGAGATGTGCTG+CAGCACATCTAGCACGTCG ((((((((.((((((((((+)))))))))).))))))))” to “CGACGTGCTATATGTGCTG+CAGCACATAGGGCACGTCG ((((((((..(((((((((+)))))))))..))))))))”, the Tm falls from 59.7 °C to 53.2 °C.

First: CGACGTGCCATATGTGCTG+CAGCACATAGTGCACGTCG ((((((((..(((((((((+)))))))))..))))))))
Second: CGACGTGCTTGATGTGCTG+CAGCACATCCGGCACGTCG ((((((((..(((((((((+)))))))))..))))))))
The Tm of the first is lower: 47.1 °C for the first, 54.6 °C for the second.

Going from “CGACGTGCGATATGTGCTG+CAGCACATGAGGCACGTCG ((((((((...((((((((+))))))))...))))))))” to “CGACGTGCATGATGTGCTG+CAGCACATAAGGCACGTCG ((((((((.(.((((((((+)))))))).).))))))))”, the Tm falls from 53.1 °C to 52.8 °C.

Compared with “CGACGTGCTGTATGTGCTG+CAGCACATCATGCACGTCG ((((((((...((((((((+))))))))...))))))))”, “CGACGTGCTATATGTGCTG+CAGCACATGCAGCACGTCG (((((((((..((((((((+))))))))..)))))))))” is higher in Tm: 50.9 °C for the first, 52.5 °C for the second.

Compared with “CGACGTGCCCAATGTGCTG+CAGCACATCTTGCACGTCG ((((((((...((((((((+))))))))...))))))))”, “CGACGTGCACCATGTGCTG+CAGCACATACGGCACGTCG ((((((((...((((((((+))))))))...))))))))” is lower in Tm: 48.1 °C for the first, 42.9 °C for the second.

“CGACGTGCAAAATGTGCTG+CAGCACATGGAGCACGTCG ((((((((...((((((((+))))))))...))))))))” and “CGACGTGCAATATGTGCTG+CAGCACATAGTGCACGTCG (((((((((.(((((((((+))))))))).)))))))))” are the same in Tm: 53.9 °C for the first, 53.9 °C for the second.
